Measurements published in the Human Domainome abundance scans (Beltran et al. 2025).
± gives the uncertainty stated by the source.

B1: 1-phosphatidylinositol 4,5-bisphosphate phosphodiesterase gamma-2, residues 772 to 827; numbered along this chain, P16885 (parent)
chain: RTVKALYDYKAKRSDELSFCRGALIHNVSKEPGGWWKGDYGTRIQQYFPSNYVEDI

Variants of: B1
Assay: abundance fitness (aPCA) (normalised: wild type 0, dead -1); higher = more abundant; growth selection in yeast, the domain comes from the species named
Settings: Homo sapiens
Variant RTVKALYDYKPKRSDELSFCRGALIHNVSKEPGGWWKGDYGTRIQQYFPSNYVEDI [A11P] has an abundance fitness of -0.446 ± 0.27. RTVKALYDYKNKRSDELSFCRGALIHNVSKEPGGWWKGDYGTRIQQYFPSNYVEDI [A11N] gave an abundance fitness of -0.378 ± 0.17. RTVKALYDYKLKRSDELSFCRGALIHNVSKEPGGWWKGDYGTRIQQYFPSNYVEDI [A11L] gave an abundance fitness of -1.05 ± 0.14. In the case of RTVKALYDYKRKRSDELSFCRGALIHNVSKEPGGWWKGDYGTRIQQYFPSNYVEDI [A11R], the abundance fitness is reported as -0.683 ± 0.083. Variant RTVKALYDYKVKRSDELSFCRGALIHNVSKEPGGWWKGDYGTRIQQYFPSNYVEDI [A11V] has an abundance fitness of -0.972 ± 0.065. In the case of RTVKALYDYKTKRSDELSFCRGALIHNVSKEPGGWWKGDYGTRIQQYFPSNYVEDI [A11T], the abundance fitness is reported as -0.461 ± 0.092. RTVKALYDYKEKRSDELSFCRGALIHNVSKEPGGWWKGDYGTRIQQYFPSNYVEDI [A11E] gave an abundance fitness of -0.775 ± 0.25. In the case of RTVKALYDYKSKRSDELSFCRGALIHNVSKEPGGWWKGDYGTRIQQYFPSNYVEDI [A11S], the abundance fitness is reported as -0.39 ± 0.11. In the case of RTVKALYDYKQKRSDELSFCRGALIHNVSKEPGGWWKGDYGTRIQQYFPSNYVEDI [A11Q], the abundance fitness is reported as -0.176 ± 0.19. For RTVKALYDYKCKRSDELSFCRGALIHNVSKEPGGWWKGDYGTRIQQYFPSNYVEDI [A11C], the abundance fitness was -0.819 ± 0.11. Variant RTVKALYDYKWKRSDELSFCRGALIHNVSKEPGGWWKGDYGTRIQQYFPSNYVEDI [A11W] has an abundance fitness of -0.989 ± 0.21. RTVKALYDYLAKRSDELSFCRGALIHNVSKEPGGWWKGDYGTRIQQYFPSNYVEDI [K10L] showed an abundance fitness of -0.399 ± 0.062. Variant RTVKALYDYTAKRSDELSFCRGALIHNVSKEPGGWWKGDYGTRIQQYFPSNYVEDI [K10T] has an abundance fitness of -0.025 ± 0.097. Work on RTVKALYDYPAKRSDELSFCRGALIHNVSKEPGGWWKGDYGTRIQQYFPSNYVEDI [K10P] yielded an abundance fitness of -0.502 ± 0.12. In the case of RTVKALYDYWAKRSDELSFCRGALIHNVSKEPGGWWKGDYGTRIQQYFPSNYVEDI [K10W], the abundance fitness is reported as -0.319 ± 0.054. With RTVKALYDYFAKRSDELSFCRGALIHNVSKEPGGWWKGDYGTRIQQYFPSNYVEDI [K10F] the abundance fitness was -0.333 ± 0.25. In the case of RTVKALYDYIAKRSDELSFCRGALIHNVSKEPGGWWKGDYGTRIQQYFPSNYVEDI [K10I], the abundance fitness is reported as -0.336 ± 0.32. For RTVKALYDYQAKRSDELSFCRGALIHNVSKEPGGWWKGDYGTRIQQYFPSNYVEDI [K10Q], the abundance fitness was -0.002 ± 0.096. For RTVKALYDYAAKRSDELSFCRGALIHNVSKEPGGWWKGDYGTRIQQYFPSNYVEDI [K10A], the abundance fitness was -0.319 ± 0.12. Work on RTVKALYDYNAKRSDELSFCRGALIHNVSKEPGGWWKGDYGTRIQQYFPSNYVEDI [K10N] yielded an abundance fitness of -0.042 ± 0.33. With RTVKALYDYRAKRSDELSFCRGALIHNVSKEPGGWWKGDYGTRIQQYFPSNYVEDI [K10R] the abundance fitness was -0.033 ± 0.079. Work on RTVKALYDYCAKRSDELSFCRGALIHNVSKEPGGWWKGDYGTRIQQYFPSNYVEDI [K10C] yielded an abundance fitness of -0.034 ± 0.055. RTVKALYDYGAKRSDELSFCRGALIHNVSKEPGGWWKGDYGTRIQQYFPSNYVEDI [K10G] gave an abundance fitness of -0.373 ± 0.054. Work on RTVKALYDYDAKRSDELSFCRGALIHNVSKEPGGWWKGDYGTRIQQYFPSNYVEDI [K10D] yielded an abundance fitness of 0.052 ± 0.1. Work on RTVKALYDYEAKRSDELSFCRGALIHNVSKEPGGWWKGDYGTRIQQYFPSNYVEDI [K10E] yielded an abundance fitness of -0.104 ± 0.11. With RTVKALYDYVAKRSDELSFCRGALIHNVSKEPGGWWKGDYGTRIQQYFPSNYVEDI [K10V] the abundance fitness was 0.103 ± 0.082. Variant RTVKALYDYSAKRSDELSFCRGALIHNVSKEPGGWWKGDYGTRIQQYFPSNYVEDI [K10S] has an abundance fitness of -0.008 ± 0.084. With RTVKALYDYYAKRSDELSFCRGALIHNVSKEPGGWWKGDYGTRIQQYFPSNYVEDI [K10Y] the abundance fitness was -0.106 ± 0.27. With RTVKALYDYMAKRSDELSFCRGALIHNVSKEPGGWWKGDYGTRIQQYFPSNYVEDI [K10M] the abundance fitness was -0.356 ± 0.12. Work on RTVKALYDYKAKRDDELSFCRGALIHNVSKEPGGWWKGDYGTRIQQYFPSNYVEDI [S14D] yielded an abundance fitness of -0.053 ± 0.11. For RTVKALYDYKAKRYDELSFCRGALIHNVSKEPGGWWKGDYGTRIQQYFPSNYVEDI [S14Y], the abundance fitness was -0.304 ± 0.19. Variant RTVKALYDYKAKRQDELSFCRGALIHNVSKEPGGWWKGDYGTRIQQYFPSNYVEDI [S14Q] has an abundance fitness of 0.037 ± 0.075. RTVKALYDYKAKRADELSFCRGALIHNVSKEPGGWWKGDYGTRIQQYFPSNYVEDI [S14A] showed an abundance fitness of 0.038 ± 0.078. RTVKALYDYKAKRGDELSFCRGALIHNVSKEPGGWWKGDYGTRIQQYFPSNYVEDI [S14G] showed an abundance fitness of -0.007 ± 0.068. RTVKALYDYKAKRTDELSFCRGALIHNVSKEPGGWWKGDYGTRIQQYFPSNYVEDI [S14T] gave an abundance fitness of -0.291 ± 0.13. RTVKALYDYKAKRKDELSFCRGALIHNVSKEPGGWWKGDYGTRIQQYFPSNYVEDI [S14K] showed an abundance fitness of -0.172 ± 0.17. Work on RTVKALYDYKAKRRDELSFCRGALIHNVSKEPGGWWKGDYGTRIQQYFPSNYVEDI [S14R] yielded an abundance fitness of 0.026 ± 0.056. With RTVKALYDYKAKRIDELSFCRGALIHNVSKEPGGWWKGDYGTRIQQYFPSNYVEDI [S14I] the abundance fitness was 0.031 ± 0.14. RTVKALYDYKAKRFDELSFCRGALIHNVSKEPGGWWKGDYGTRIQQYFPSNYVEDI [S14F] gave an abundance fitness of 0.024 ± 0.16. In the case of RTVKALYDYKAKRNDELSFCRGALIHNVSKEPGGWWKGDYGTRIQQYFPSNYVEDI [S14N], the abundance fitness is reported as -0.316 ± 0.21. RTVKALYDYKAKRLDELSFCRGALIHNVSKEPGGWWKGDYGTRIQQYFPSNYVEDI [S14L] showed an abundance fitness of -0.167 ± 0.072. Variant RTVKALYDYKAKRMDELSFCRGALIHNVSKEPGGWWKGDYGTRIQQYFPSNYVEDI [S14M] has an abundance fitness of 0.024 ± 0.06. In the case of RTVKALYDYKAKRWDELSFCRGALIHNVSKEPGGWWKGDYGTRIQQYFPSNYVEDI [S14W], the abundance fitness is reported as -0.334 ± 0.09. RTVKALYDYKAKRCDELSFCRGALIHNVSKEPGGWWKGDYGTRIQQYFPSNYVEDI [S14C] showed an abundance fitness of -0.124 ± 0.14. RTVKALYDYKAKREDELSFCRGALIHNVSKEPGGWWKGDYGTRIQQYFPSNYVEDI [S14E] showed an abundance fitness of -0.206 ± 0.095. In the case of RTVKALYDYKAKRPDELSFCRGALIHNVSKEPGGWWKGDYGTRIQQYFPSNYVEDI [S14P], the abundance fitness is reported as -0.439 ± 0.21. RTVKALYDYKAKRHDELSFCRGALIHNVSKEPGGWWKGDYGTRIQQYFPSNYVEDI [S14H] gave an abundance fitness of -0.107 ± 0.18.
